Measurements: US20250171542A1

Molecular target: Trop2 on MDA-MB-231 cell surface (UniProt P09758)
Test: cell-based or functional assay

Trop2 on MDA-MB-231 cell surface, sequence (P09758 27-323 limits assumed): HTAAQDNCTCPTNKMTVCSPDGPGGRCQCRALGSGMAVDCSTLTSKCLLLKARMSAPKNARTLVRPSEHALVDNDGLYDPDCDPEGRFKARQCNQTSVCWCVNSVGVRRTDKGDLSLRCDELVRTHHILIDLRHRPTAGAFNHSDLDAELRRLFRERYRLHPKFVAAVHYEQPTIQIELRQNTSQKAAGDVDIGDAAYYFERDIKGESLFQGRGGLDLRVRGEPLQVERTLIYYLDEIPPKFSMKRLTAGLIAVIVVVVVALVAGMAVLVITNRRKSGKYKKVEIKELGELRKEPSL

B1: Trodelvy (Sacituzumab govitecan-hziy, Immunomedics) (antibody, INN chains, looked up, V domains shown)
VH: QVQLQQSGSELKKPGASVKVSCKASGYTFTNYGMNWVKQAPGQGLKWMGWINTYTGEPTYTDDFKGRFAFSLDTSVSTAYLQISSLKADDTAVYFCARGGFGSSYWYFDVWGQGSLVTVSS
VL: DIQLTQSPSSLSASVGDRVSITCKASQDVSIAVAWYQQKPGKAPKLLIYSASYRYTGVPDRFSGSGSGTDFTLTISSLQPEDFAVYYCQQHYITPLTFGAGTKVEIKR
modifications: govitecan (SN-38) payload
  Internalization (%), FACS, 0.25 µg/ml, 2 h: 35.7%
  Internalization (%), FACS, 0.25 µg/ml, 4 h: 45.1%
  Internalization (%), FACS, 0.5 µg/ml, 2 h: 38%
  Internalization (%), FACS, 0.5 µg/ml, 4 h: 45.6%
  Internalization (%), FACS, 1 µg/ml, 2 h: 36.5%
  Internalization (%), FACS, 1 µg/ml, 4 h: 44.5%
  Internalization (%), FACS, 2 µg/ml, 2 h: 36.2%
  Internalization (%), FACS, 2 µg/ml, 4 h: 46.1%
